Test results published in US8461305B2, “L-fucose α1→6 specific lectin” (J-Oil Mills, Inc., priority 2008, dated 2013).

Legend:
[1] = biological target: α-fetoprotein (derived from human umbilical cord blood serum, mainly L1-type sugar chain) (human) (UniProt P02771); assay: ELISA, α-fetoprotein coated at 0.01 µg/ml, biotin-labeled lectin
[2] = biological target: α-fetoprotein-L3 (prepared from the culture supernatant of human liver cancer cells) (human) (UniProt P02771); assay: ELISA, α-fetoprotein-L3 coated at 0.01 µg/ml, biotin-labeled lectin
α-fetoprotein-L3 (prepared from the culture supernatant of human liver cancer cells) (human), sequence (P02771 19-609 limits assumed): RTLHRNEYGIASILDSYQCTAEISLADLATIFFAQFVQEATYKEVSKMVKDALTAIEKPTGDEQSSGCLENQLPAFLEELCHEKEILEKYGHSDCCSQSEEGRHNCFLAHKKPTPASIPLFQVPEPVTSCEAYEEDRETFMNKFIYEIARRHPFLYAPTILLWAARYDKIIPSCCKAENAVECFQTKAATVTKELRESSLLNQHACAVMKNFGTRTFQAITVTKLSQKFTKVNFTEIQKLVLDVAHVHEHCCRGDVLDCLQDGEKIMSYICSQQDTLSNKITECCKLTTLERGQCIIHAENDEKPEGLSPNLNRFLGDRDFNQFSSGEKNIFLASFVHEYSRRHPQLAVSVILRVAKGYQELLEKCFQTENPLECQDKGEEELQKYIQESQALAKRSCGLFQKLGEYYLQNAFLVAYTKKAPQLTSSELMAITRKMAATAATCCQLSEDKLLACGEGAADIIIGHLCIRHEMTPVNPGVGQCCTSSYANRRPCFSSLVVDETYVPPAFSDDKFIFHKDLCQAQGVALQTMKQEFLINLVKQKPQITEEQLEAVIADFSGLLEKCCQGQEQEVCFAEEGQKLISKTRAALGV

[3] = biological target: Lens culinaris agglutinin (LCA) of Comparison Example 3 (Lens culinaris) (UniProt P02870); assay: hemagglutination inhibition; glycoprotein titrated against lectin at titer 4
[4] = biological target: Aleuria aurantia lectin (AAL) of Comparison Example 1 (Aleuria aurantia) (UniProt P18891); assay: as above
[5] = biological target: Aspergillus oryzae lectin (AOL) of Comparison Example 2 (Aspergillus oryzae); assay: as above
Aspergillus oryzae lectin (AOL) of Comparison Example 2 (Aspergillus oryzae), sequence (Q8TGE0 whole entry): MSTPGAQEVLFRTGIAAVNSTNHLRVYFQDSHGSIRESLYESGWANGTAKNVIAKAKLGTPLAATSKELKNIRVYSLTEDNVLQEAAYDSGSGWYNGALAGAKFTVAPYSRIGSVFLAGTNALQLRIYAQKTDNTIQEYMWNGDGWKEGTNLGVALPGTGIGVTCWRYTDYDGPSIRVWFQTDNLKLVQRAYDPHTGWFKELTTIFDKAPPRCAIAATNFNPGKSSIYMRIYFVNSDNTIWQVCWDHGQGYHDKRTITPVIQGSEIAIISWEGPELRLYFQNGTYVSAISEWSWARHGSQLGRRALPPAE

[6] = biological target: Stropharia rugosoannulata lectin (SRL) of Example 2 (Stropharia rugosoannulata); assay: as above
[7] = biological target: Pholiota terrestris lectin (PTL) of Example 1 (Pholiota terrestris); assay: as above
[8] = biological target: Pisum sativum agglutinin (PSA) of Comparison Example 4 (Pisum sativum) (UniProt P02867); assay: as above
Pisum sativum agglutinin (PSA) of Comparison Example 4 (Pisum sativum), sequence (P02867 31-275 limits assumed): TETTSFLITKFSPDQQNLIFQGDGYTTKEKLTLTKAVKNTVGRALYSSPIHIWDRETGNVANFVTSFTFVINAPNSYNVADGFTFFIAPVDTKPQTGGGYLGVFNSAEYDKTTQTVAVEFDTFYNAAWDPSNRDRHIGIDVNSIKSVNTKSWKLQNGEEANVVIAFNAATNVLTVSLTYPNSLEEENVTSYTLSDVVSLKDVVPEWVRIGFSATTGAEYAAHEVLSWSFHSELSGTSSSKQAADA

Transferrin (human) = Transferrin (human) (human, UniProt P02787 20-698, N-linked glycans without L-fucose α1→6); assay: Western blotting, glycoprotein on PVDF stained with biotin-labeled lectin
Transferrin (human), sequence (P02787 20-698 limits assumed): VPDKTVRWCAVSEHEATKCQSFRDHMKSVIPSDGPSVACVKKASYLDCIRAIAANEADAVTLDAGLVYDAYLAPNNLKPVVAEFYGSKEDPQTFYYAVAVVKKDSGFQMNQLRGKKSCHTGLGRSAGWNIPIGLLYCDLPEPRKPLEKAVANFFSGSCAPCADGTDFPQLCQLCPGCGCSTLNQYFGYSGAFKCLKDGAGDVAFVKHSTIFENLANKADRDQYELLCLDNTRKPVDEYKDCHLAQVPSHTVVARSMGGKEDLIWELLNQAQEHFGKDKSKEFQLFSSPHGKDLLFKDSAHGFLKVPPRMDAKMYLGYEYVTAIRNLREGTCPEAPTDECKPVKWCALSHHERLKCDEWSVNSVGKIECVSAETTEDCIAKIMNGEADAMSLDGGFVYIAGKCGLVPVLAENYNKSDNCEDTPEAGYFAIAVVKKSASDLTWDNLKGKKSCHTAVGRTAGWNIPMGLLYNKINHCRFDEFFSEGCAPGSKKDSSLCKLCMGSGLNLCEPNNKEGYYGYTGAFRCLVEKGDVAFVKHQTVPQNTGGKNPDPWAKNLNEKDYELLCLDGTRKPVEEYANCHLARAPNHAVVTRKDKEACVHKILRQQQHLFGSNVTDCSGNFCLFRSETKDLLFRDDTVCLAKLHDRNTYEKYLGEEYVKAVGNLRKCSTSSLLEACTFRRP
Experimental: (§1) The film was immersed in 10 mM Tris buffer solution including 0.8% NaCl added with 1% BSA (pH 7.4, 1% BSA+TBS) and was shaken at a room temperature for one hour. Then, the film was cleaned three times by 10 mM Tris buffer solution (pH 7.4, TBS) including 0.8% NaCl. Then, the film was immersed in biotin-labeled lectin solution (2 µg/ml) and was shaken at a room temperature for one hour. Then, the film was cleaned three times by TBS. Then, the film was immersed in the HRP label streptavidin solution at 1 µg/ml (Vector Laboratories) and was shaken at a room temperature for 30 minutes. After the film was cleaned three times by TBS, a POD immunostain set (Wako Pure Chemical Industries, Ltd.) was used to perform a staining test. The staining test is to detect glycoprotein by the western blotting using biotin-labeled lectin. FIG. 13 to FIG. 17 are photographs showing the following glycoproteins stained by PTL (FIG. 13), SRL (FIG. 14), AAL (FIG. 15), AOL (FIG. 16), or LCA (FIG. 17).

Lactoferrin (bovine) = Lactoferrin (bovine) (bovine, UniProt P24627 20-708, L-fucose α1→6 N-linked glycans); assay: Western blotting, glycoprotein on PVDF stained with biotin-labeled lectin; ◯ = Detected
Lactoferrin (bovine), sequence (P24627 20-708 limits assumed): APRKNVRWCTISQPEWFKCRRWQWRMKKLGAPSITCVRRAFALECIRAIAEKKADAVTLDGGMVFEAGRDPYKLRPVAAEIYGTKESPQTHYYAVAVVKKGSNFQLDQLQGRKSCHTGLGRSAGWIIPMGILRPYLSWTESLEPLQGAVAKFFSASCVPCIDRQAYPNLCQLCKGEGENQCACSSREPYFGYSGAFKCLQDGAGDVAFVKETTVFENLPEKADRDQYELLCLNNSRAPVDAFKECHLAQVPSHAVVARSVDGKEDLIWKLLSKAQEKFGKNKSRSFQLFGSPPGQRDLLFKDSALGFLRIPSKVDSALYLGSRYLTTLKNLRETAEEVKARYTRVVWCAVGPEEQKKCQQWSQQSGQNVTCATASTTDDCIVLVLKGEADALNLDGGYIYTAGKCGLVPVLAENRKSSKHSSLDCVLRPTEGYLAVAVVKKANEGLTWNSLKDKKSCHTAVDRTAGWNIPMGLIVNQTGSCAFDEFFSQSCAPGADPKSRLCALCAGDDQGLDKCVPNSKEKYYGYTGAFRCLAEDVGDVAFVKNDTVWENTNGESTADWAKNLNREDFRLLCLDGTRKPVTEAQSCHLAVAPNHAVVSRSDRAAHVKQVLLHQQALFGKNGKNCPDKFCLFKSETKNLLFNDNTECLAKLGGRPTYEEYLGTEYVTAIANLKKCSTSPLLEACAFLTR
Experimental: as §1

Thyroglobulin (pig) = Thyroglobulin (pig) (pig, UniProt F1RRV3 20-2692, L-fucose α1→6 N-linked glycans); assay: ELISA, glycoprotein coated, biotin-labeled lectin; thyroglobulin set to 100%; ⊚ = relative values of 120 to 80
Experimental: The glycoprotein and albumin as protein not including a sugar chain as a control were dissolved in 0.1 M carbonic acid buffer solution (pH 9.5) at 1 mg/ml. Then, the resultant solution was added to a microtiter plate (Nunc 439454) and was incubated at 4 degrees C. overnight. Then, the resultant solution was cleaned by 0.05% Tween/PBS three times. Thereafter, 1% BSA/PBS was added to wells and the solution was incubated at 37 degrees C. for one hour. Then, after the solution was cleaned by 0.05% Tween/PBS three times, biotin labeled-lectin appropriately diluted by 1% BSA/0.05% Tween/PBS was added to the wells and the solution was incubated at 37 degrees C. for one hour. […]
(§2) The reaction was stopped by 1 M phosphoric acid. Then, a microplate reader (MPR-A4i, TOSOH CORPORATION) was used to measure the absorbance at 450 nm. Based on this value, reaction value ([absorbance at 450 nm of a well for which glycoprotein was solid-phased to the plate and
In contrast with this, in the case of PTL of Example 1 and SRL of Example 2, only glycoprotein having sL-fucose α1→6 sugar chain is detected and a non-L-fucose α1→6 reacted]−[absorbance at 450 nm of a well for which glycoprotein was not solid-phased to the plate and reacted] was calculated. […]

Invertase (yeast) = biological target: T1, Invertase (yeast) (yeast, UniProt P00724 20-532, high mannose-type sugar chains); assay: ELISA, glycoprotein coated, biotin-labeled lectin; relative value with thyroglobulin = 100%
T1 sequence (looked up): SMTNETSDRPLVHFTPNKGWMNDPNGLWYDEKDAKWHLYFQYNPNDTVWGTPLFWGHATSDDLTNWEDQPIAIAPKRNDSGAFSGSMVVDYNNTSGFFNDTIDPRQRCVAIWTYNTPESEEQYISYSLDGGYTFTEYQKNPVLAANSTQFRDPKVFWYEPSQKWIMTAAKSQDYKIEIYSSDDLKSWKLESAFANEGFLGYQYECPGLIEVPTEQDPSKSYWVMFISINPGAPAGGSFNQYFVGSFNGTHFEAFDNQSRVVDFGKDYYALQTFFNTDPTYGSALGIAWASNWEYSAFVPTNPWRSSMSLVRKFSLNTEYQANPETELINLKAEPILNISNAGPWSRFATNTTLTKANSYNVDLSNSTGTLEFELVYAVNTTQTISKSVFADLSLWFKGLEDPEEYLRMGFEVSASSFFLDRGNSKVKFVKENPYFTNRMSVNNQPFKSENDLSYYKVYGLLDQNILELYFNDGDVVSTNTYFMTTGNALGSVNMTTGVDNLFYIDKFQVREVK
Experimental: (§3) The glycoprotein and albumin as protein not including a sugar chain as a control were dissolved in 0.1 M carbonic acid buffer solution (pH 9.5) at 1 mg/ml. Then, the resultant solution was added to a microtiter plate (Nunc 439454) and was incubated at 4 degrees C. overnight. Then, the resultant solution was cleaned by 0.05% Tween/PBS three times. Thereafter, 1% BSA/PBS was added to wells and the solution was incubated at 37 degrees C. for one hour. Then, after the solution was cleaned by 0.05% Tween/PBS three times, biotin labeled-lectin appropriately diluted by 1% BSA/0.05% Tween/PBS was added to the wells and the solution was incubated at 37 degrees C. for one hour. After the solution was cleaned by 0.05% Tween/PBS three times, HRP labeled streptavidin solution diluted by 1% BSA/0.05% Tween/PBS was added to wells and the solution was incubated at 37 degrees C. for 30 minutes. After the solution was cleaned by 0.05% Tween/PBS three times, TMB Peroxidase substrate system (KPL) was added and the resultant solution was incubated at a room temperature for 10 minutes while light was being blocked.
as §2
(§4) […] reacted]−[absorbance at 450 nm of a well for which glycoprotein was not solid-phased to the plate and reacted] was calculated. Next, for each lectin, the interaction strength (relative value) to each glycoprotein was calculated based on an assumption that the glycoprotein (thyroglobulin) value was 100%. The calculation result is shown in Table 9 and FIG. 19 to FIG. 23.

Bovine serum albumin = biological target: T2, Bovine serum albumin (bovine, UniProt P02769 25-607); assay: as above
T2 construct: Control protein without a sugar chain; also called Bovine blood serum albumin; Blood serum albumin (bovine)
T2 sequence (P02769 25-607 limits assumed): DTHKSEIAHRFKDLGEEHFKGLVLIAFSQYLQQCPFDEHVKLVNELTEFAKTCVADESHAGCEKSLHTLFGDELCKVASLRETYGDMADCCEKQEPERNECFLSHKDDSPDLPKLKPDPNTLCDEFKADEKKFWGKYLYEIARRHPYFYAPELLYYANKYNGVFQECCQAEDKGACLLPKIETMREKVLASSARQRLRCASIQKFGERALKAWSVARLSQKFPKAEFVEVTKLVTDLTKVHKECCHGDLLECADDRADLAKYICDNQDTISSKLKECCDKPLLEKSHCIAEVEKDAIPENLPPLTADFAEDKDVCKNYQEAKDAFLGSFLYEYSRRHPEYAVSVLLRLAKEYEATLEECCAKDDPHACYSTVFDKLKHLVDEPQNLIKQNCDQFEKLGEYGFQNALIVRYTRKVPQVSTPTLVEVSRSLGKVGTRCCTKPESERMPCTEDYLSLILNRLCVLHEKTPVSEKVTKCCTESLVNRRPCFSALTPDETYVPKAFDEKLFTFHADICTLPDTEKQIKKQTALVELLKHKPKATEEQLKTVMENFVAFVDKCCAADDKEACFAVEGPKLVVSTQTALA
Experimental: as §3, §2, §4

α-fetoprotein (derived from human umbilical cord blood serum, mainly L1-type sugar chain) (human), sequence (P02771 19-609 limits assumed): as the sequence (P02771 19-609 limits assumed) above

Lens culinaris agglutinin (LCA) of Comparison Example 3 (from UniProt P02870 31-210; P02870 218-269)
reaction value (absorbance at 450 nm, blank subtracted) (absorbance at 450 nm) [1]: 0.01
reaction value (absorbance at 450 nm, blank subtracted) (absorbance at 450 nm) [2]: 0.455

Pholiota terrestris lectin (PTL) of Example 1
reaction value (absorbance at 450 nm, blank subtracted) (absorbance at 450 nm) [2]: 1.55

Asialofetuin
minimum inhibition concentration [3]: 250 µl/ml

Stropharia rugosoannulata lectin (SRL) of Example 2
reaction value (absorbance at 450 nm, blank subtracted) (absorbance at 450 nm) [1]: 0.031
reaction value (absorbance at 450 nm, blank subtracted) (absorbance at 450 nm) [2]: 1.62

Mucin (pig)
minimum inhibition concentration [4]: 15.6 µl/ml
minimum inhibition concentration [5]: 62.5 µl/ml

Thyroglobulin (Table 3 and affinity column, species not stated)
minimum inhibition concentration [6]: 250 µl/ml
minimum inhibition concentration [4]: 125 µl/ml
minimum inhibition concentration [7]: 250 µl/ml
minimum inhibition concentration [8]: 62.5 µl/ml
minimum inhibition concentration [3]: 62.5 µl/ml

Aspergillus oryzae lectin (AOL) of Comparison Example 2
reaction value (absorbance at 450 nm, blank subtracted) (absorbance at 450 nm) [1]: 0.011
reaction value (absorbance at 450 nm, blank subtracted) (absorbance at 450 nm) [2]: 0.898

Asialomucin (pig)
minimum inhibition concentration [4]: 31.3 µl/ml
minimum inhibition concentration [5]: 62.5 µl/ml

Aleuria aurantia lectin (AAL) of Comparison Example 1 (from UniProt P18891 2-313)
reaction value (absorbance at 450 nm, blank subtracted) (absorbance at 450 nm) [2]: 0.795

B1: Aleuria aurantia lectin (AAL) of Comparison Example 1 (other, UniProt P18891 2-313, looked up)
chain: PTEFLYTSKIAAISWAATGGRQQRVYFQDLNGKIREAQRGGDNPWTGGSSQNVIGEAKLFSPLAAVTWKSAQGIQIRVYCVNKDNILSEFVYDGSKWITGQLGSVGVKVGSNSKLAALQWGGSESAPPNIRVYYQKSNGSGSSIHEYVWSGKWTAGASFGSTVPGTGIGATAIGPGRLRIYYQATDNKIREHCWDSNSWYVGGFSASASAGVSIAAISWGSTPNIRVYWQKGREELYEAAYGGSWNTPGQIKDASRPTPSLPDTFIAANSSGNIDISVFFQASGVSLQQWQWISGKGWSIGAVVPTGTPAGW
modifications: biotin-labeled in the Western blotting and ELISA experiments
notes: Bought lectin
binding result (Transferrin (human)): no binding (tested: biotin-labeled lectin 2 µg/ml)
binding result (Lactoferrin (bovine)): binds
binding result (Thyroglobulin (pig)): binds
binding result (Invertase (yeast)): no binding (tested: relative value 10 or less)
binding result (Bovine serum albumin): no binding (tested: relative value 10 or less)

B2: Lens culinaris agglutinin (LCA) of Comparison Example 3 (other)
chain 1: TETTSFSITKFSPDQKNLIFQGDGYTTKGKLTLTKAVKSTVGRALYSTPIHIWDRDTGNVANFVTSFTFVIDAPSSYNVADEFTFFIAPVDTKPQTGGGYLGVFNSKEYDKTSQTVAVEFDTFYNAAWDPSNKERHIGIDVNSIKSVNTKSWNLQNGERANVVIAFNAATNVLTVTLTYP
chain 2: VTSYTLNEVVPLKDVVPEWVRIGFSATTGAEFAAHEVHSWSFHSELGGTSSS
modifications: biotin-labeled in the Western blotting and ELISA experiments
notes: Bought lectin
binding result (Transferrin (human)): no binding (tested: biotin-labeled lectin 2 µg/ml)
binding result (Bovine serum albumin): no binding (tested: relative value 10 or less)
